Results on seven variants are retold here after IntAct's records for PubMed 31515488.

Sequences and labels used below:
B1: Medium-chain acyl-CoA ligase ACSF2, mitochondrial (Homo sapiens), Q96CM8 (parent)
chain: MAVYVGMLRLGRLCAGSSGVLGARAALSRSWQEARLQGVRFLSSREVDRMVSTPIGGLSYVQGCTKKHLNSKTVGQCLETTAQRVPEREALVVLHEDVRLTFAQLKEEVDKAASGLLSIGLCKGDRLGMWGPNSYAWVLMQLATAQAGIILVSVNPAYQAMELEYVLKKVGCKALVFPKQFKTQQYYNVLKQICPEVENAQPGALKSQRLPDLTTVISVDAPLPGTLLLDEVVAAGSTRQHLDQLQYNQQFLSCHDPINIQFTSGTTGSPKGATLSHYNIVNNSNILGERLKLHEKTPEQLRMILPNPLYHCLGSVAGTMMCLMYGATLILASPIFNGKKALEAISRERGTFLYGTPTMFVDILNQPDFSSYDISTMCGGVIAGSPAPPELIRAIINKINMKDLVVAYGTTENSPVTFAHFPEDTVEQKAESVGRIMPHTEARIMNMEAGTLAKLNTPGELCIRGYCVMLGYWGEPQKTEEAVDQDKWYWTGDVATMNEQGFCKIVGRSKDMIIRGGENIYPAELEDFFHTHPKVQEVQVVGVKDDRMGEEICACIRLKDGEETTVEEIKAFCKGKISHFKIPKYIVFVTNYPLTISGKIQKFKLREQMERHLNL
B2: Tuftelin-interacting protein 11 (Homo sapiens), Q9UBB9 (parent)
chain: MSLSHLYRDGEGRIDDDDDERENFEITDWDLQNEFNPNRQRHWQTKEEATYGVWAERDSDDERPSFGGKRARDYSAPVNFISAGLKKGAAEEAELEDSDDEEKPVKQDDFPKDFGPRKLKTGGNFKPSQKGFAGGTKSFMDFGSWERHTKGIGQKLLQKMGYVPGRGLGKNAQGIINPIEAKQRKGKGAVGAYGSERTTQSMQDFPVVDSEEEAEEEFQKELSQWRKDPSGSKKKPKYSYKTVEELKAKGRISKKLTAPQKELSQVKVIDMTGREQKVYYSYSQISHKHNVPDDGLPLQSQQLPQSGKEAKAPGFALPELEHNLQLLIDLTEQEIIQNDRQLQYERDMVVNLFHELEKMTEVLDHEERVISNLSKVLEMVEECERRMQPDCSNPLTLDECARIFETLQDKYYEEYRMSDRVDLAVAIVYPLMKEYFKEWDPLKDCTYGTEIISKWKSLLENDQLLSHGGQDLSADAFHRLIWEVWMPFVRNIVTQWQPRNCDPMVDFLDSWVHIIPVWILDNILDQLIFPKLQKEVENWNPLTDTVPIHSWIHPWLPLMQARLEPLYSPIRSKLSSALQKWHPSDSSAKLILQPWKDVFTPGSWEAFMVKNIVPKLGMCLGELVINPHQQHMDAFYWVIDWEGMISVSSLVGLLEKHFFPKWLQVLCSWLSNSPNYEEITKWYLGWKSMFSDQVLAHPSVKDKFNEALDIMNRAVSSNVGAYMQPGARENIAYLTHTERRKDFQYEAMQERREAENMAQRGIGVAASSVPMNFKDLIETKAEEHNIVFMPVIGKRHEGKQLYTFGRIVIYIDRGVVFVQGEKTWVPTSLQSLIDMAK
partner: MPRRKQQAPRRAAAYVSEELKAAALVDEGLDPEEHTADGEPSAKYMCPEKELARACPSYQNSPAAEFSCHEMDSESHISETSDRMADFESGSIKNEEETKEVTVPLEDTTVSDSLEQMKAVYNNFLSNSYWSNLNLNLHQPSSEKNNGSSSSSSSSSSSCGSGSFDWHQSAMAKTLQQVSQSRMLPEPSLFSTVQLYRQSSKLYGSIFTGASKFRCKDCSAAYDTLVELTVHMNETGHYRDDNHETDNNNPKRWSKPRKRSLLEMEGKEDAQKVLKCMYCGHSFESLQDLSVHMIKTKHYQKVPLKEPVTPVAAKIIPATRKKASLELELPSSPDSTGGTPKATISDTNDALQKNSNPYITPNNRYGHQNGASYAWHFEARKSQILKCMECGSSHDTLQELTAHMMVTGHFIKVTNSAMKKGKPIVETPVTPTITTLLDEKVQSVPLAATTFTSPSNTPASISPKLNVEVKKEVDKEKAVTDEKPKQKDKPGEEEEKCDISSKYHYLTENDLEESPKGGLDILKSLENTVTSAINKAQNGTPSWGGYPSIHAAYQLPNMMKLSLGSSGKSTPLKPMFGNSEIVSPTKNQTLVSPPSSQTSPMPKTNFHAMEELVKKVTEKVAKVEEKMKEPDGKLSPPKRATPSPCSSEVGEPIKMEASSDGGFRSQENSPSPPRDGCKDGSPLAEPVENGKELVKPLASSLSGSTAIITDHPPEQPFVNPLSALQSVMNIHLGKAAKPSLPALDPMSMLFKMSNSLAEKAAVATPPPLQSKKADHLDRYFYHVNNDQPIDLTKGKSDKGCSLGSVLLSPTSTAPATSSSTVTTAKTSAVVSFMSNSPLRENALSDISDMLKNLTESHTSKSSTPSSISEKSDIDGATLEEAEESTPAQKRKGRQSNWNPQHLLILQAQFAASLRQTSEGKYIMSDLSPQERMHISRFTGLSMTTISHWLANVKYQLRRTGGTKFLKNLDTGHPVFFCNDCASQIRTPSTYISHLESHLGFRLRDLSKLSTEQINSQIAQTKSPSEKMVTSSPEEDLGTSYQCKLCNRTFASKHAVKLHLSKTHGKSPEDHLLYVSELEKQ
B3: Cyclic AMP-responsive element-binding protein 3-like protein 1 (Homo sapiens), Q96BA8 (parent)
chain: MDAVLEPFPADRLFPGSSFLDLGDLNESDFLNNAHFPEHLDHFTENMEDFSNDLFSSFFDDPVLDEKSPLLDMELDSPTPGIQAEHSYSLSGDSAPQSPLVPIKMEDTTQDAEHGAWALGHKLCSIMVKQEQSPELPVDPLAAPSAMAAAAAMATTPLLGLSPLSRLPIPHQAPGEMTQLPVIKAEPLEVNQFLKVTPEDLVQMPPTPPSSHGSDSDGSQSPRSLPPSSPVRPMARSSTAISTSPLLTAPHKLQGTSGPLLLTEEEKRTLIAEGYPIPTKLPLTKAEEKALKRVRRKIKNKISAQESRRKKKEYVECLEKKVETFTSENNELWKKVETLENANRTLLQQLQKLQTLVTNKISRPYKMAATQTGTCLMVAALCFVLVLGSLVPCLPEFSSGSQTVKEDPLAADGVYTASQMPSRSLLFYDDGAGLWEDGRSTLLPMEPPDGWEINPGGPAEQRPRDHLQHDHLDSTHETTKYLSEAWPKDGGNGTSPDFSHSKEWFHDRDLGPNTTIKLS
B4: Pyruvate dehydrogenase protein X component, mitochondrial (Homo sapiens), O00330 (parent)
chain: MAASWRLGCDPRLLRYLVGFPGRRSVGLVKGALGWSVSRGANWRWFHSTQWLRGDPIKILMPSLSPTMEEGNIVKWLKKEGEAVSAGDALCEIETDKAVVTLDASDDGILAKIVVEEGSKNIRLGSLIGLIVEEGEDWKHVEIPKDVGPPPPVSKPSEPRPSPEPQISIPVKKEHIPGTLRFRLSPAARNILEKHSLDASQGTATGPRGIFTKEDALKLVQLKQTGKITESRPTPAPTATPTAPSPLQATAGPSYPRPVIPPVSTPGQPNAVGTFTEIPASNIRRVIAKRLTESKSTVPHAYATADCDLGAVLKVRQDLVKDDIKVSVNDFIIKAAAVTLKQMPDVNVSWDGEGPKQLPFIDISVAVATDKGLLTPIIKDAAAKGIQEIADSVKALSKKARDGKLLPEEYQGGSFSISNLGMFGIDEFTAVINPPQACILAVGRFRPVLKLTEDEEGNAKLQQRQLITVTMSSDSRVVDDELATRFLKSFKANLENPIRLA

The variants in one assay derive from B1. The conditions noted are these: with atrap_human AGTRAP.
Target sequence in this assay (Q6RW13 whole entry): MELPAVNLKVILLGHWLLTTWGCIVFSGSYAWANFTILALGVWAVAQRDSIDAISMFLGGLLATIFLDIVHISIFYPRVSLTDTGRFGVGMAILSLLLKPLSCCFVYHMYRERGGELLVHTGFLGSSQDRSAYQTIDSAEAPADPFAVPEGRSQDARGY
With G19W, the “effect of a mutation on the interaction” value is “disrupting interaction strength”.
In the case of A34V, the “effect of a mutation on the interaction” value is “disrupting interaction strength”.

Another assay covers variants of B1. The conditions noted are these: with ar6p1_human ARL6IP1, Q15041.
Chain of ar6p1_human ARL6IP1, Q15041 (Q15041 whole entry): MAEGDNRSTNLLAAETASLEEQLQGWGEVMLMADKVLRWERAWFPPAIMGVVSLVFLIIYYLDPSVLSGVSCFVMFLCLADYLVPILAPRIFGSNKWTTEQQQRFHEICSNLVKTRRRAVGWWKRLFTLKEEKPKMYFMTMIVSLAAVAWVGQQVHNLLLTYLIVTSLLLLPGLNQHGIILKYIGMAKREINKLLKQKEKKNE
For the variant G19W, the “effect of a mutation on the interaction” value was “disrupting interaction strength”.
Consider A34V, for which the “effect of a mutation on the interaction” value is recorded as “disrupting interaction strength”.

The next assay covers variants of B2. The conditions noted are these: with tsh3_human TSHZ3, Q63HK5.
In the case of S688L, the “effect of a mutation on the interaction” value is “with no effect”.
Consider R8Q, for which the “effect of a mutation on the interaction” value is “with no effect”.

In a further assay the parent is B3. The conditions noted are these: with gpr25_human GPR25, O00155.
Chain of gpr25_human GPR25, O00155 (O00155 whole entry): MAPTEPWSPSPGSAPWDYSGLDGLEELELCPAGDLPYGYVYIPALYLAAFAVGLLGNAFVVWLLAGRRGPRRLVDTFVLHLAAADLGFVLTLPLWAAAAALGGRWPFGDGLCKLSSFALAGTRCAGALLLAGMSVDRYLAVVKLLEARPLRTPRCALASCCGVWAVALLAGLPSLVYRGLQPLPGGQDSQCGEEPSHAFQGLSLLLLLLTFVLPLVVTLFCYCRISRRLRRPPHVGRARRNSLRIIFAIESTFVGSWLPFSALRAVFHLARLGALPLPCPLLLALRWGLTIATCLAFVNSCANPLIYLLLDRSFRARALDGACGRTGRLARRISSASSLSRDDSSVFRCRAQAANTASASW
Take MDAVLEPFPADRLFPGSSFLDLGDLNESDFLNNAHFPEHLDHFTENMEDFSNDLFSSFFDDPVLDEKSPLLDMELDSPTPGIQAEHSYSLSGDSAPQSPLVPIKMEDTTQDAEHGAWALGHKLCSIMVKQEQSPELPVDPLAAPSAMAAAAAMATTPLLGLSPLSRLPIPHQAPGEMTQLPVIKAEPLEVNQFLKVTPEDLVQMPPTPPSSHGSDSDGSQSPRSLPPSSPVRPMARSSTAISTSPLLTAPHKLQGTSGPLLLTEEEKRTLIAEGYPIPTKLPLTKAEEKALKRVRRKIKNKISAQESRRKKKEYVECLEKKVETFTSENNELWKKVETLENANRTLLQQLQKLQTLVTNKISRPYKMAATQTGTCLMVAALCFVLVLGSLVPCLPEFSSGSQTVKEDPLAADGVYTASQMPSRSLLFYDDGAGLWEDGRSTLLPMEPPDGWEINPGGPAEQRPRDHLQHDHLDSTHETTKYLSEAWPKDGGNGTSPDFSHSKEWFHDRDLGPNTTSKLS [I516S]: the “effect of a mutation on the interaction” value is recorded as “with no effect”.
Same read-out and setting: the value for MDAVLEPFPADRLFPGSSFLDLGDLNESDFLNNAHFPEHLDHFTENMEDFSNDLFSSFFDDPVLDEKSPLLDMELDSPTPGIQAEHSYSLSGDSAPQSPLVPIKMEDTTQDAEHGAWALGHKLCSIMVKQEQSPELPVDPLAAPSAMAAAATMATTPLLGLSPLSRLPIPHQAPGEMTQLPVIKAEPLEVNQFLKVTPEDLVQMPPTPPSSHGSDSDGSQSPRSLPPSSPVRPMARSSTAISTSPLLTAPHKLQGTSGPLLLTEEEKRTLIAEGYPIPTKLPLTKAEEKALKRVRRKIKNKISAQESRRKKKEYVECLEKKVETFTSENNELWKKVETLENANRTLLQQLQKLQTLVTNKISRPYKMAATQTGTCLMVAALCFVLVLGSLVPCLPEFSSGSQTVKEDPLAADGVYTASQMPSRSLLFYDDGAGLWEDGRSTLLPMEPPDGWEINPGGPAEQRPRDHLQHDHLDSTHETTKYLSEAWPKDGGNGTSPDFSHSKEWFHDRDLGPNTTIKLS [A152T] was “with no effect”.

The next assay covers variants of B3. The note with it: with tm147_human TMEM147, Q9BVK8.
Chain of tm147_human TMEM147, Q9BVK8 (Q9BVK8 whole entry): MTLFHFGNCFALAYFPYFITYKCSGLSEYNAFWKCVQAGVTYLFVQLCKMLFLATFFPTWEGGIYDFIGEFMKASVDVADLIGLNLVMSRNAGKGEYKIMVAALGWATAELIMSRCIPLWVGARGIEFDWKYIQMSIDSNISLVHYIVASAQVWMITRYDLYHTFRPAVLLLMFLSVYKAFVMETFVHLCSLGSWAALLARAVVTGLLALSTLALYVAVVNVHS
MDAVLEPFPADRLFPGSSFLDLGDLNESDFLNNAHFPEHLDHFTENMEDFSNDLFSSFFDDPVLDEKSPLLDMELDSPTPGIQAEHSYSLSGDSAPQSPLVPIKMEDTTQDAEHGAWALGHKLCSIMVKQEQSPELPVDPLAAPSAMAAAAAMATTPLLGLSPLSRLPIPHQAPGEMTQLPVIKAEPLEVNQFLKVTPEDLVQMPPTPPSSHGSDSDGSQSPRSLPPSSPVRPMARSSTAISTSPLLTAPHKLQGTSGPLLLTEEEKRTLIAEGYPIPTKLPLTKAEEKALKRVRRKIKNKISAQESRRKKKEYVECLEKKVETFTSENNELWKKVETLENANRTLLQQLQKLQTLVTNKISRPYKMAATQTGTCLMVAALCFVLVLGSLVPCLPEFSSGSQTVKEDPLAADGVYTASQMPSRSLLFYDDGAGLWEDGRSTLLPMEPPDGWEINPGGPAEQRPRDHLQHDHLDSTHETTKYLSEAWPKDGGNGTSPDFSHSKEWFHDRDLGPNTTSKLS [I516S]: the “effect of a mutation on the interaction” value is “with no effect”.
The same measure, in the same setting: the value for MDAVLEPFPADRLFPGSSFLDLGDLNESDFLNNAHFPEHLDHFTENMEDFSNDLFSSFFDDPVLDEKSPLLDMELDSPTPGIQAEHSYSLSGDSAPQSPLVPIKMEDTTQDAEHGAWALGHKLCSIMVKQEQSPELPVDPLAAPSAMAAAATMATTPLLGLSPLSRLPIPHQAPGEMTQLPVIKAEPLEVNQFLKVTPEDLVQMPPTPPSSHGSDSDGSQSPRSLPPSSPVRPMARSSTAISTSPLLTAPHKLQGTSGPLLLTEEEKRTLIAEGYPIPTKLPLTKAEEKALKRVRRKIKNKISAQESRRKKKEYVECLEKKVETFTSENNELWKKVETLENANRTLLQQLQKLQTLVTNKISRPYKMAATQTGTCLMVAALCFVLVLGSLVPCLPEFSSGSQTVKEDPLAADGVYTASQMPSRSLLFYDDGAGLWEDGRSTLLPMEPPDGWEINPGGPAEQRPRDHLQHDHLDSTHETTKYLSEAWPKDGGNGTSPDFSHSKEWFHDRDLGPNTTIKLS [A152T] was “with no effect”.

Variants of B4 are the subject of another assay. The note with it: with atrap_human AGTRAP.
Target sequence in this assay (Q6RW13 whole entry): as the sequence (Q6RW13 whole entry) above
As for MAASWRLGCDPRLLRYLVGFPGRRSVGLVKGALGWSVSRGANWRWFHSTQWLRGDPIKILMPSLSPTMEEGNIVKWLKKEGEAVSAGDALCEIETDKAVVTLDASDDGILAKIVVEEGSKNIRLGSLIGLIVEEGEDWKHVEIPKDVGPPPPVSKPSEPRPSPEPQISIPVKKEHIPGTLRFRLSPAARNILEKHSLDASQGTATGPRGIFTKEDALKLVQLKQTGKITESRPTPAPTATPTAPSPLQATAGPSYPRPVIPPVSTPGQPSAVGTFTEIPASNIRRVIAKRLTESKSTVPHAYATADCDLGAVLKVRQDLVKDDIKVSVNDFIIKAAAVTLKQMPDVNVSWDGEGPKQLPFIDISVAVATDKGLLTPIIKDAAAKGIQEIADSVKALSKKARDGKLLPEEYQGGSFSISNLGMFGIDEFTAVINPPQACILAVGRFRPVLKLTEDEEGNAKLQQRQLITVTMSSDSRVVDDELATRFLKSFKANLENPIRLA [N270S], the “effect of a mutation on the interaction” value is “with no effect”.
